These results are taken from publication PMC8215385, “Design of a Proteolytically Stable Sodium-Calcium Exchanger 1 Activator Peptide for In Vivo Studies” (Frontiers in Pharmacology, 2021).

B1: NOPT-TAT (peptide)
peptide: [NMePro]YKEIEQLIELANYQVRKKRRQRRR
notes: also called TAT-conjugated NOPT; cell-permeable NOPT; source: synthetic peptide (Genscript, >80% purity)
B2: biotin-ahx-pSer68-PLMcyt (peptide)
peptide: {Biotin-Ahx}-KRCRCKFNQQQRTGEPDEEEGTFRSSIRRLSSRRR
modifications: also: phosphoserine at Ser68 (numbering not mappable from notes)
notes: cytoplasmic part of phospholemman (PLM, FXYD1), printed as [residues removed]; Immobilised on SA chips (SPR) and used as overlay probe on the peptide arrays; also called biotin-pSer68-PLM; biotin-pSer68-PLMcyt; source: synthetic peptide (Genscript, >80% purity)

Non-standard residues stand in square brackets, D forms with d. No end group written: not given here. *: point of attachment. Biotin = O=C1N[C@H]2[C@H](CS[C@H]2CCCCC(=O)*)N1; NMePro = CN1CCC[C@H]1C(=O)*; Ahx = NCCCCCC(=O)O

In assay [1] the target is T1, pSer68-PLMcyt (Mus musculus, UniProt Q9Z239).
T1 construct: purchased Genscript; host or cells: synthetic peptide
T1 sequence (Q9Z239 58-92 limits assumed): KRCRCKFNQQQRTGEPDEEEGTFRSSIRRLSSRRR
The assay is described as follows: Peptide array overlay with biotin-pSer68-PLM. The format is binding. The following applies: membrane-synthesized peptides overlaid with 5 μM biotin-pSer68-PLM, anti-biotin-HRP. The source says:
Peptides on cellulose membranes were synthesized using a Multipep automated peptide synthesizer (INTAVIS Bioanalytical Instruments AG, Koeln, Germany) ([Frank, 1992], [Frank, 2002]). Peptides in solution were synthesized (listed below) at >80% purity by Genscript (Corporation, Piscataway, NJ, United States). For some of the peptides a cell-permeable TAT ([…]) or a biotin tag was included at either N- or C-terminus with or without an ahx-linker in between to avoid any potential steric hindrance.
Peptide array membranes were blocked in 1% casein for 2–4 h and overlaid with 5 μM of biotinylated pSer68-PLM peptide in 1% casein overnight at 4°C. The membranes were then washed three times for 10 min in TBS-T before incubation with anti-biotin-horseradish peroxidase (HRP) for 1 h (see Antibodies and Recombinant Protein). Peptide-bound spots were detected as described in the immunoblotting section.

Assay [2] deals with B2. Briefly: SPR; Biacore X100; biotinylated pSer68-PLMcyt or PLMcyt immobilised on SA chip (~50-200 RU); His-TF-NCX1cyt dialysed into running buffer injected at a range of concentrations (single cycles), 30 or 100 ul/min, 180 s, dissociation 600 s; 1:1 (Langmuir) fit.
Assay [3] deals with biotin-ahx-PLMcyt. Described as above.
In assay [4] the test system is NCX1. Briefly: NCX activity (NCX rate constant, 1/τcaff) in isolated adult cardiomyocytes. In kind it is cell-based, mouse. The following applies: 1 μM, vs TAT-tagged scrambled control. The method, then:
8 weeks old C57BL6/J mice were randomized to SHAM or an aortic banding (AB) operation using o-rings (ORAB) as previously described ([Melleby et al., 2018]). Mice were anesthetized in a combination of 5% isoflurane and 95% O2, before endotracheal intubation and ventilation using a MiniVent rodent ventilator (Harvard Apparatus, United States). Left sided hemothoracotomy in the third intercostal space was performed, before dissection and placement of the o-ring around the ascending aorta. Animals were allowed to recover, and post-operative analgesia was achieved by injections of buprenorphine in accordance with the institutional guidelines. […]
(§1) Isolated cardiomyocytes were loaded for 10 min with 5 μM fluo-4 AM ester (Molecular Probes, Eugene, OR, United States) at RT. […] Whole-cell Ca^2+ transients were recorded in field stimulated cardiomyocytes at 0.5 Hz (2.5 ms bipolar pulses) and 37°C with Cairn Research Optoscan Monochromator (excitation 485 nm, emission 515 nm long pass) (Cairn Research Ltd., United Kingdom). Regular Ca^2+ transients were recorded for at least 3 min per cell, before the field stimulation was stopped and 10 mM caffeine was added. Background fluorescence was recorded for each cell. […] The NCX rate constant was calculated as: 1/τcaff ([Díaz et al., 1997]), as the non SERCA2, non-NCX mediated Ca^2+ removal was considered negligible.

The subject of assay [5] is adult mouse cardiomyocytes. Briefly: Ca2+ transients and SR Ca2+ load in isolated adult cardiomyocytes. The following applies: 1 μM, vs scrambled control. In kind it is cell-based. The method, then: 8 weeks old C57BL6/J mice were randomized to SHAM or an aortic banding (AB) operation using o-rings (ORAB) as previously described ([Melleby et al., 2018]). Mice were anesthetized in a combination of 5% isoflurane and 95% O2, before endotracheal intubation and ventilation using a MiniVent rodent ventilator (Harvard Apparatus, United States). Left sided hemothoracotomy in the third intercostal space was performed, before dissection and placement of the o-ring around the ascending aorta. Animals were allowed to recover, and post-operative analgesia was achieved by injections of buprenorphine in accordance with the institutional guidelines. Animal experiments was approved by the Norwegian National Animal Research Committee (FDU 7040).
Cardiomyocytes were isolated based on a similar protocol as recently described ([Ackers-Johnson et al., 2016]). Mice were anesthetized and mask ventilated with a combination of 3% isoflurane and 97% O2. Deep surgical anesthesia was confirmed by abolished pain reflexes. […] Then 7 ml of buffer A (in mM: HEPES 25, NaCl 130, KCl 5.4, NaH2PO4 0.4, MgCl2 0.5, D-glucose 22, pH 7.4) with 5 mM EDTA was injected into the right ventricle. Thereafter, the aorta was clamped and the heart was excised. 10 ml of the buffer solution and thereafter 3 ml of the buffer solution without EDTA were injected into the left ventricle over 2–5 min. Then preheated solution A containing 0.8 mg/ml collagenase II was injected into the left ventricle over ∼20 min. The atria and right ventricle were removed, and the cardiomyocytes were isolated according to the same procedure as described for the Langendorff-based isolation of rat cardiomyocytes (described further below).
as §1, with “RT. The superfusate contained (mM): NaCl 140, HEPES 5, KCl 5.4, CaCl2 1, MgCl2 0.5, D-glucose 5.5 and NaH2PO4 0.4. The pH was adjusted to 7.4.” for “RT.”, “cell. Ca^2+ transients amplitude and SR Ca^2+ load was calculated as maximal fluorescence (F) divided on resting fluorescence (F0) on field stimulated and caffeine evoked Ca^2+ transients, respectively (See Figure 4I for illustration of protocol details).” for “cell.”

Assay [6] has as its target B2. Briefly: SPR. The following applies: both partners purified.
Assay [7] concerns the target T2, OPT with two amino acids deleted at its C-terminus.
T2 construct: C-terminus'; source: synthetic peptide, spot-synthesised on cellulose membrane
T2 peptide: YHPYKEIEQLIELANYQV
The assay is described as follows: peptide or protein array; peptides spot-synthesised on cellulose membranes, blocked in 1% casein, overlaid with 5 uM biotinylated pSer68-PLM peptide in 1% casein overnight at 4°C; detected with anti-biotin-HRP. To be noted: both partners purified.

The target of assay [8] is T3, mini-OPT.
T3 construct: residues 3-18 of OPT; source: synthetic peptide, spot-synthesised on cellulose membrane
T3 peptide: PYKEIEQLIELANYQV
Described as above. To be noted: both partners purified.

Assay [9] has as its target T4, OPT with three amino acids deleted at its N-terminus.
T4 construct: source: synthetic peptide, spot-synthesised on cellulose membrane
T4 peptide: YKEIEQLIELANYQVLS
The description is as above. The following applies: both partners purified.

For the molecule “Y14A: Y14A substitution of mini-OPT on the peptide array; negative control in pull down (PYKEIEQLIELANAQV)”, the “pSer68-PLM binding on peptide array” value in assay [1] was “abolished pSer68-PLM binding”.

For HIS-TF-NCX1cyt (domain or fragment), in assay [2], the Kd was 4.3 nM, the dissociation rate constant (koff) was 0.0011 s⁻¹ and the on-rate (kon) is 380000 M⁻¹ s⁻¹. In assay [3], this molecule displayed an equilibrium dissociation constant (Kd) of 4.1 nM, an off-rate constant (koff) of 0.004 s⁻¹ and a kon of 1.1e+06 M⁻¹ s⁻¹.

On to “NOPT-TAT: NOPT made cell permeable by addition of a TAT tag to its C-terminus ([NMePro]YKEIEQLIELANYQVRKKRRQRRR)”, for which the “increase of NCX1 activity (NCX1 rate constant)” value is “approximately 40%” in [4] (cardiomyocytes from SHAM-operated mice, 10–13 cells from three mice) and “approximately 60%” in assay [4] (cardiomyocytes from aorta banded HF mice, 6–7 cells from three mice). Further, the “Ca2+ transient amplitude” value in assay [5] (HF cardiomyocytes) and in [5] (SHAM cardiomyocytes) was “did not change” each time. Also, the “sarcoplasmic reticulum (SR) Ca2+ load” value in assay [5] (HF cardiomyocytes) and in assay [5] (SHAM cardiomyocytes) was “did not change” each time.

As for “E6G: E6G substitution of mini-OPT on the peptide array; negative control in pull down (PYKEIGQLIELANYQV)”, the “pSer68-PLM binding on peptide array” value in assay [1] is “abolished pSer68-PLM binding”.

In the case of PYKEIEQLIELANYQV [mini-OPT], in [1], the “pSer68-PLM binding on peptide array” value is “minimum sequence that was required to bind pSer68-PLMcyt”.

For the molecule B1, the dissociation constant (Kd) in [6] was 129 nM.

On to B2, for which the binding result in assay [7], in assay [8] and in assay [9] was “binds” in each case.
